Measured values from PMC10350917 (Journal of Medicinal Chemistry, 2023).
“And” between values parts separate entries of the source, which are not always exact repeats. Equal values may be shown once.

How the values were obtained:
ADC-7 = ADC-7 (Acinetobacter baumannii, UniProt Q6DRA1); conditions: ref [10]; cited from earlier work
ADC-162 = ADC-162 (Acinetobacter baumannii, UniProt A0A2H4PPJ8); experiment: Inhibition kinetics (competition with nitrocefin), ADC-162; format: biochemical
Description: (§1) For inhibition kinetics, utilizing nitrocefin (NCF) as a colorimetric substrate, the inhibition constant (Ki) of MB076 and S02030 BATSI with ADCs was determined using competition kinetics as previously described.[10],[25],[28],[34] The measurements of the initial velocities were performed with the addition of 100 μM NCF after a 3 min pre-incubation of the enzyme (2 nM) with increasing concentration of the inhibitor. […] The Ki value was corrected for the NCF affinity (KM values for each ADC variant listed in Table 1) with the Cheng–Prusoff[35] equation: [drawing 2]

in vitro = conditions: human, plasma, pH 7.4
Description: (§2) The in vitro stability of MB076 and S02030 was evaluated by incubating the compounds in both buffer (pH 7.4) and human plasma at 37 °C over 48 h. Half-lives (t1/2) were then calculated for each compound.
(§3) Plasma and buffer stability samples were analyzed by monitoring the disappearance of the compounds using high-performance liquid chromatography-mass spectrometry (LC–MS) techniques.
Half-lives (t1/2) were calculated in Origin using a one-phase decay model with t1/2 = ln(2)/b, where b is the slope of a linear plot of natural logarithm (ln) of the remaining compound concentration (C) versus incubation time. Each condition was tested in triplicate.

physchem = conditions: buffer, pH 7.4
Description: as §2, §3
Standard solutions were prepared by adding the compound in DMSO (2.5 μM) to 0.1 M phosphate buffer pH 7.4 and MeOH. Solutions were vortexed, filtered, and analyzed by LC–MS (At=0). Samples were then prepared by adding a solution of the compound in DMSO (2.5 μM) to phosphate buffer pH 7.4 and incubating at 37 °C. At suitable time intervals, the reaction was stopped by the addition of MeOH. The solutions were vortexed and filtered. Degradation time courses were followed by LC–MS enabling the quantitation of compounds. Half-lives (t1/2) were calculated in Origin using a one-phase decay model with t1/2 = ln(2)/b, where b is the slope of a linear plot of natural logarithm (ln) of the remaining compound concentration (C) versus incubation time. Each condition was tested in triplicate.

KPC-2 = conditions: ref [14],[25]; cited from earlier work
SHV-1 = conditions: ref [14],[25]; cited from earlier work
ADC-33 [1] = target: T1, ADC-33 (Acinetobacter baumannii, UniProt A7Y407); experiment: Inhibition kinetics (competition with nitrocefin), ADC-33; format: biochemical; conditions: 100 μM nitrocefin, 3 min pre-incubation
Description: as §1

ADC variants = experiment: Inhibition kinetics, statement for all ADC variants; format: biochemical, Acinetobacter baumannii; conditions: bound stated for all ADC variants of the study
Description: as §1

ADC-30 = ADC-30 (Acinetobacter baumannii, UniProt A7XM81); experiment: Inhibition kinetics (competition with nitrocefin), ADC-30; format: biochemical; conditions: 100 μM nitrocefin, 3 min pre-incubation
Description: as §1

[2] = test system: ADC-33 in pBCSK(−) E. coli DH10B; experiment: Broth microdilution AST, ADC-33; format: cell-based; conditions: Escherichia coli, E. coli DH10B ADC-33, MB076 fixed at 10 mg/L in combinations, FDC in iron-depleted broth
Description: (§4) Susceptibility testing to standard antibiotics was performed by broth microdilution or agar dilution using an Oxoid replicator according to 2021 Clinical and Laboratory Standards Institute (CLSI) guidelines. MICs for CAZ, CTX, FEP, and TOL were determined using cation-adjusted Mueller Hinton MH broth, and MICs for FDC were done in iron-depleted cation-adjusted MH broth according to CLSI methods. MB076, S02030, and VAB were used at a fixed concentration of 10 mg/L. All MICs were interpreted according to the 2021 CLSI guidelines.[43]
(§5) blaADC-7 pBCSK- was cloned and expressed in E. coli DH10B cells as previously described.[44] All other blaADC variants were synthesized by GenScript according to the blaADC-7 pBCSK- strategy, cloning into the XbaI/BamHI sites of the pBCSK- vector.

[3] = test system: ADC-219 in pBCSK(−) E. coli DH10B; experiment: Broth microdilution AST, ADC-219; format: cell-based; conditions: Escherichia coli, E. coli DH10B ADC-219, MB076 fixed at 10 mg/L in combinations, FDC in iron-depleted broth
Description: as §4, §5

[4] = test system: ADC-30 in pBCSK(−) E. coli DH10B; experiment: Broth microdilution AST, ADC-30; format: cell-based; conditions: Escherichia coli, E. coli DH10B ADC-30, MB076 fixed at 10 mg/L in combinations, FDC in iron-depleted broth
Description: as §4, §5

[5] = test system: ADC-212 in pBCSK(−) E. coli DH10B; experiment: Broth microdilution AST, ADC-212; format: cell-based; conditions: Escherichia coli, E. coli DH10B ADC-212, MB076 fixed at 10 mg/L in combinations, FDC in iron-depleted broth
Description: as §4, §5

[6] = test system: ADC-7 in pBCSK(−) E. coli DH10B; experiment: Broth microdilution AST, ADC-7; format: cell-based; conditions: Escherichia coli, E. coli DH10B ADC-7, MB076 fixed at 10 mg/L in combinations, FDC in iron-depleted broth
Description: as §4, §5

ADC-33 [7] = target: T1, ADC-33; conditions: ADC-33; substrate
Description: Steady-state kinetic parameters were determined by combining pure enzyme with antibiotic substrates in 50 mM NaH2PO4, pH 7.4 at room temperature. Changes in absorbance were measured on a Cary 60 UV–Vis spectrophotometer (Agilent Technologies) and converted to velocity using the change in extinction coefficient specific to nitrocefin (ε482 = 17,400 M^–1·cm^–1), cephalothin (ε262 = 7660 M^–1·cm^–1), ceftazidime (ε260 = 8660 M^–1·cm^–1), cefotaxime (ε260 = 7500 M^–1·cm^–1), cefepime (ε260 = 750 M^–1·cm^–1), cefiderocol (ε259 = 9430 M^–1·cm^–1), and ceftolozane (ε254 = 6810 M^–1·cm^–1). Initial velocities were fit to the Michaelis–Menten equation yielding kcat and KM values. For ADC/substrate combinations in which the KM was too large to accurately determine both kcat and KM values, the initial velocities at kcat/KM values were calculated from linear fits of vo in low [S] ranges (<0.08 × KM).

[8] = test system: CC(=O)OCC1=C(C(=O)O)N2C(=O)[C@@H](NC(=O)Cc3cccs3)[C@H]2SC1; experiment: purified protein, by the assay type; conditions: 50 mM NaH2PO4 pH 7.4, room temperature
[9] = test system: O=C(Cc1cccs1)N[C@@H]1C(=O)N2C(C(=O)O)=C(/C=C/c3ccc([N+](=O)[O-])cc3[N+](=O)[O-])CS[C@H]12; experiment: purified protein, by the assay type; conditions: 50 mM NaH2PO4 pH 7.4, room temperature
[10] = test system: CO/N=C(\C(=O)N[C@@H]1C(=O)N2C(C(=O)[O-])=C(C[N+]3(C)CCCC3)CS[C@H]12)c1csc(N)n1; experiment: purified protein, by the assay type; conditions: 50 mM NaH2PO4 pH 7.4, room temperature
[11] = test system: Cn1c(N)c(NC(=O)NCCN)c[n+]1CC1=C(C(=O)O)N2C(=O)[C@@H](NC(=O)/C(=N\OC(C)(C)C(=O)[O-])c3nsc(N)n3)[C@H]2SC1; experiment: purified protein, by the assay type; conditions: 50 mM NaH2PO4 pH 7.4, room temperature
[12] = test system: CC(C)(O/N=C(\C(=O)N[C@@H]1C(=O)N2C(C(=O)[O-])=C(C[N+]3(CCNC(=O)c4ccc(O)c(O)c4Cl)CCCC3)CS[C@H]12)c1csc(N)n1)C(=O)O; experiment: purified protein, by the assay type; conditions: 50 mM NaH2PO4 pH 7.4, room temperature
[13] = test system: CC(C)(O/N=C(\C(=O)N[C@@H]1C(=O)N2C(C(=O)[O-])=C(C[n+]3ccccc3)CS[C@H]12)c1csc(N)n1)C(=O)O; experiment: purified protein, by the assay type; conditions: 50 mM NaH2PO4 pH 7.4, room temperature

O=C(Cc1cccs1)N[C@@H](Cn1cc(C(=O)O)nn1)B(O)O [S02030]
Ki (ADC-7): 44.5 nM and 44 nM and 45 nM | Ki (ADC-162): 160 ± 10 nM | half-life at 2.5 μM (in vitro): 9 h | half-life (physchem): 8 h | IC50 (KPC-2): 80 nM | IC50 (SHV-1): 130 nM | Ki (ADC-33 [1]): 110 ± 4 nM | Ki (ADC variants): < 1000 nM | Ki (ADC-30): 28 ± 2 nM

CO/N=C(\C(=O)N[C@@H]1C(=O)N2C(C(=O)[O-])=C(C[N+]3(C)CCCC3)CS[C@H]12)c1csc(N)n1 [cefepime]
MIC [2]: 0.5 µg/mL | MIC [3]: 0.12 µg/mL | MIC [4]: 0.25 µg/mL | MIC [5]: 0.5 µg/mL | MIC [6]: 0.25 µg/mL

CC(C)(O/N=C(\C(=O)N[C@@H]1C(=O)N2C(C(=O)[O-])=C(C[N+]3(CCNC(=O)c4ccc(O)c(O)c4Cl)CCCC3)CS[C@H]12)c1csc(N)n1)C(=O)O [cefiderocol]
MIC [2]: 2 µg/mL | MIC [3]: 1 µg/mL | MIC [4]: 0.5 µg/mL | MIC [5]: 1 µg/mL | MIC [6]: 0.5 µg/mL | kcat (ADC-33 [7]): 0.60 s^–1

Cn1c(N)c(NC(=O)NCCN)c[n+]1CC1=C(C(=O)O)N2C(=O)[C@@H](NC(=O)/C(=N\OC(C)(C)C(=O)[O-])c3nsc(N)n3)[C@H]2SC1 [ceftolozane]
MIC [2]: 256 µg/mL | MIC [3]: 128 µg/mL | MIC [4]: 8 µg/mL | MIC [5]: 256 µg/mL | MIC [6]: 8 µg/mL | kcat (ADC-33 [7]): 4.23 s^–1

ADC-7 (Acinetobacter baumannii)
Km ([8]; other: ADC-7, substrate): 204.2 ± 11.2 µM | kcat ([8]; other: ADC-7, substrate): 659 ± 16.6 s⁻¹ | kcat/Km ([8]; other: ADC-7, substrate): 3.22e+06 ± 260000 M⁻¹ s⁻¹ | Km ([9]; other: ADC-7, substrate): 57.5 ± 4.6 µM | kcat ([9]; other: ADC-7, substrate): 720 ± 18.6 s⁻¹ | kcat/Km ([9]; other: ADC-7, substrate): 1.25e+07 ± 1.33e+06 M⁻¹ s⁻¹ | kcat/Km ([10]; other: ADC-7, substrate): 6400 M⁻¹ s⁻¹ | kcat/Km ([11]; other: ADC-7, substrate): < 1000 M⁻¹ s⁻¹ | kcat/Km ([12]; other: ADC-7, substrate): < 1000 M⁻¹ s⁻¹ | kcat/Km ([13]; other: ADC-7, substrate): 2000 M⁻¹ s⁻¹

ADC-30 (Acinetobacter baumannii)
Km ([8]; other: ADC-30, substrate): 174.8 ± 8.8 µM | kcat ([8]; other: ADC-30, substrate): 763 ± 16.5 s⁻¹ | kcat/Km ([8]; other: ADC-30, substrate): 4.36e+06 ± 310000 M⁻¹ s⁻¹ | Km ([9]; other: ADC-30, substrate): 46.3 ± 3.7 µM | kcat ([9]; other: ADC-30, substrate): 538 ± 12.9 s⁻¹ | kcat/Km ([9]; other: ADC-30, substrate): 1.16e+07 ± 1.21e+06 M⁻¹ s⁻¹ | kcat/Km ([10]; other: ADC-30, substrate): 4900 M⁻¹ s⁻¹ | kcat/Km ([11]; other: ADC-30, substrate): < 1000 M⁻¹ s⁻¹ | kcat/Km ([12]; other: ADC-30, substrate): < 1000 M⁻¹ s⁻¹ | kcat/Km ([13]; other: ADC-30, substrate): 3300 M⁻¹ s⁻¹

ADC-33 (Acinetobacter baumannii)
Km ([8]; other: ADC-33, substrate): 95.3 ± 3.5 µM | kcat ([8]; other: ADC-33, substrate): 347 ± 4.5 s⁻¹ | kcat/Km ([8]; other: ADC-33, substrate): 3.64e+06 ± 180000 M⁻¹ s⁻¹ | Km ([9]; other: ADC-33, substrate): 45.8 ± 6.07 µM | kcat ([9]; other: ADC-33, substrate): 707 ± 28.2 s⁻¹ | kcat/Km ([9]; other: ADC-33, substrate): 1.54e+07 ± 2.66e+06 M⁻¹ s⁻¹ | kcat/Km ([10]; other: ADC-33, substrate): 16900 M⁻¹ s⁻¹ | Km ([11]; other: ADC-33, substrate): 219.3 ± 21.6 µM | kcat ([11]; other: ADC-33, substrate): 4.23 ± 0.18 s⁻¹ | kcat/Km ([11]; other: ADC-33, substrate): 19300 ± 2700 M⁻¹ s⁻¹ | Km ([12]; other: ADC-33, substrate): 107 µM and 107.2 ± 13.8 µM | kcat ([12]; other: ADC-33, substrate): 0.6 ± 0.0315 s⁻¹ | kcat/Km ([12]; other: ADC-33, substrate): 5600 ± 1000 M⁻¹ s⁻¹ | Km ([13]; other: ADC-33, substrate): 59.3 ± 7.80 µM | kcat ([13]; other: ADC-33, substrate): 3.71 ± 0.088 s⁻¹ | kcat/Km ([13]; other: ADC-33, substrate): 62600 ± 9700 M⁻¹ s⁻¹

ADC-162 (Acinetobacter baumannii)
Km ([8]; other: ADC-162, substrate): 382.0 ± 26.4 µM | kcat ([8]; other: ADC-162, substrate): 656 ± 22.8 s⁻¹ | kcat/Km ([8]; other: ADC-162, substrate): 1.72e+06 ± 180000 M⁻¹ s⁻¹ | Km ([9]; other: ADC-162, substrate): 88.1 ± 8.06 µM | kcat ([9]; other: ADC-162, substrate): 591 ± 20 s⁻¹ | kcat/Km ([9]; other: ADC-162, substrate): 6.71e+06 ± 840000 M⁻¹ s⁻¹ | kcat/Km ([10]; other: ADC-162, substrate): 2800 M⁻¹ s⁻¹ | kcat/Km ([11]; other: ADC-162, substrate): < 1000 M⁻¹ s⁻¹ | kcat/Km ([12]; other: ADC-162, substrate): < 1000 M⁻¹ s⁻¹ | kcat/Km ([13]; other: ADC-162, substrate): 3400 M⁻¹ s⁻¹
